Results as given in publication PMC10914587.

Tests used:
[1] = biological target: T1, sclerostin loop 3-6 (sites 127-128 mutated) (UniProt Q9BQB4 135-169, G151A;E152A); assay: BLI
T1 chain: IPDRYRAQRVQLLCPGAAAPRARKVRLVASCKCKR

[2] = biological target: sclerostin (UniProt Q9BQB4 24-213); assay: BLI
sclerostin, sequence (Q9BQB4 24-213): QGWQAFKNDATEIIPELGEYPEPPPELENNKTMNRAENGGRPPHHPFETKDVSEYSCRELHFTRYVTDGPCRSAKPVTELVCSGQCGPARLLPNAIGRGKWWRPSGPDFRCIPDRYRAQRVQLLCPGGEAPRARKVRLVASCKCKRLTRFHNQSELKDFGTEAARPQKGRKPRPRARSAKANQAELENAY

B1: Aptscl56 (ssDNA)
DNA: CGGGGTGTGGGTTCGTCGTTAGCTTGATTTGGCAGCTGCC
[1]
  binding result: no binding
[2]
  Kd: 68.6 nM
